Test results taken from US20250171512A1.

Target: human FGFR1c together with human beta-Klotho (KLB), stably expressed on CHO Flp-In cells (human), P11362
Test: cell-based or functional assay

Sequence of human FGFR1c together with human beta-Klotho (KLB), stably expressed on CHO Flp-In cells (human), P11362 (P11362 22-822, chain 1 of 2): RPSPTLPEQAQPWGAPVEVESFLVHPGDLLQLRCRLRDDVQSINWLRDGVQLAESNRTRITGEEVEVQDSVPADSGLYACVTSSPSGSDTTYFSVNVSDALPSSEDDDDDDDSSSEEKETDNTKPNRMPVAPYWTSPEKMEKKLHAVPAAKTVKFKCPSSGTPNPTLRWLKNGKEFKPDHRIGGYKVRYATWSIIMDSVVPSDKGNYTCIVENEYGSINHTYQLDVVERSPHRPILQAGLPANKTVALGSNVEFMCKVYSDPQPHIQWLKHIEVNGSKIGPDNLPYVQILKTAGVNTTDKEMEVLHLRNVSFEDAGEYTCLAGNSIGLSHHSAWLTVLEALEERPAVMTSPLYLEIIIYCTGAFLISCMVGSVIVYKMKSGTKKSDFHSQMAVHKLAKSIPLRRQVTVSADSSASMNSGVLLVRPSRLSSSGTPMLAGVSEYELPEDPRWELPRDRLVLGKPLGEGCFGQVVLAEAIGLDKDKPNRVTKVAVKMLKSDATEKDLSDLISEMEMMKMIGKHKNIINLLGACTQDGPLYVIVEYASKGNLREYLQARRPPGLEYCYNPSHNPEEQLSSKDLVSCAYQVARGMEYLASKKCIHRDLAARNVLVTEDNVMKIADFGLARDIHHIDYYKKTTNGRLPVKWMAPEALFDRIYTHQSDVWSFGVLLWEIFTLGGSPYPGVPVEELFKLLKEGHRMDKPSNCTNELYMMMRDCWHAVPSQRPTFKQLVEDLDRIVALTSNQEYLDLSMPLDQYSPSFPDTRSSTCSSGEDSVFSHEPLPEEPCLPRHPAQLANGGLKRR
Sequence of human FGFR1c together with human beta-Klotho (KLB), stably expressed on CHO Flp-In cells (human), P11362 (Q86Z14 whole entry, chain 2 of 2, further chain): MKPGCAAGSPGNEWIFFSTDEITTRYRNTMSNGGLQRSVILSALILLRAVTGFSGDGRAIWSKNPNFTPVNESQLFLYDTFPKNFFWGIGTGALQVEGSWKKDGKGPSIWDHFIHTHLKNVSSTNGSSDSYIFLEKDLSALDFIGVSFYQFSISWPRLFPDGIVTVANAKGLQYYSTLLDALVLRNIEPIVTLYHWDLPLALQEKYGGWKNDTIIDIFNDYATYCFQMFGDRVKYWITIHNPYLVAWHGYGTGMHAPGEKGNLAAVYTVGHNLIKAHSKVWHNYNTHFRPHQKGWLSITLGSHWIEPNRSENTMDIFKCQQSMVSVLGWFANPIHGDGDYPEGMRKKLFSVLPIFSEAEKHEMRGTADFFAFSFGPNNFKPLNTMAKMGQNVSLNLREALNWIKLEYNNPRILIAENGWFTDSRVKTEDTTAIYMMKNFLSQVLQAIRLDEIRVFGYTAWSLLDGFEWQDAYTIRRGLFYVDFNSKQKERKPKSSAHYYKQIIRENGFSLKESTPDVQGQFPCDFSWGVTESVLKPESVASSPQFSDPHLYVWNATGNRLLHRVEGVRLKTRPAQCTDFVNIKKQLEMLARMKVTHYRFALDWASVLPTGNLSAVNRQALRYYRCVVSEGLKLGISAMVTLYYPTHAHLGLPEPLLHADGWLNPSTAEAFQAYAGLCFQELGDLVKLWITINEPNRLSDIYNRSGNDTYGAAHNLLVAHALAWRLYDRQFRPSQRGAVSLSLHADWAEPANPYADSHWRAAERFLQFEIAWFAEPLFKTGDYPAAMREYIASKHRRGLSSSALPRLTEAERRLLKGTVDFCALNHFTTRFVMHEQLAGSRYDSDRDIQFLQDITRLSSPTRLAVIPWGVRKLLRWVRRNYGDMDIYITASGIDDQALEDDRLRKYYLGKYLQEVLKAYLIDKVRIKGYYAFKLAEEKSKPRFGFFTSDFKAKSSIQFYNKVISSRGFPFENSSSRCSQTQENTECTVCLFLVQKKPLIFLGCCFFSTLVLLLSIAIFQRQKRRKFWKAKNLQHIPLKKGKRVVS

Binder | pERK ICW EC50 [nmol/L] | also measured
FGF21 N149-R163 deleted and replaced by GSGS (SEQ ID NO: 136), Q9NSA1 29-209 (ligand) GHPIPDSSPLLQFGGQVRQRYLYTDDAQQTEAHLEIREDGTVGGAADQSPESLLQLKALKPGVIQILGVKTSRFLCQRPDGALYGSLHFDPEACSFRELLLEDGYNVYQSEAHGLPLHLPGGSGSFLPLPGLPPAPPEPPGILAPQPPDVGSSDPLSMVGPSQGRSPSYAS | 3.69 | 
FGF21 P152-H153 deleted (SEQ ID NO: 135), Q9NSA1 29-209 (ligand) GHPIPDSSPLLQFGGQVRQRYLYTDDAQQTEAHLEIREDGTVGGAADQSPESLLQLKALKPGVIQILGVKTSRFLCQRPDGALYGSLHFDPEACSFRELLLEDGYNVYQSEAHGLPLHLPGNKSRDPAPRGPARFLPLPGLPPAPPEPPGILAPQPPDVGSSDPLSMVGPSQGRSPSYAS | 0.21 | 
FGF21 N149-A162 deleted and replaced by GSHSG (SEQ ID NO: 137), Q9NSA1 29-209 (ligand) GHPIPDSSPLLQFGGQVRQRYLYTDDAQQTEAHLEIREDGTVGGAADQSPESLLQLKALKPGVIQILGVKTSRFLCQRPDGALYGSLHFDPEACSFRELLLEDGYNVYQSEAHGLPLHLPGGSHSGRFLPLPGLPPAPPEPPGILAPQPPDVGSSDPLSMVGPSQGRSPSYAS | 0.57 | 
FGF21 G202-R203 deleted (SEQ ID NO: 157), Q9NSA1 29-209 (ligand) GHPIPDSSPLLQFGGQVRQRYLYTDDAQQTEAHLEIREDGTVGGAADQSPESLLQLKALKPGVIQILGVKTSRFLCQRPDGALYGSLHFDPEACSFRELLLEDGYNVYQSEAHGLPLHLPGNKSPHRDPAPRGPARFLPLPGLPPAPPEPPGILAPQPPDVGSSDPLSMVGPSQSPSYAS | 1.63 | 
FGF21 N149-A162 deleted and replaced by GSHSGS (SEQ ID NO: 138), Q9NSA1 29-209 (ligand) GHPIPDSSPLLQFGGQVRQRYLYTDDAQQTEAHLEIREDGTVGGAADQSPESLLQLKALKPGVIQILGVKTSRFLCQRPDGALYGSLHFDPEACSFRELLLEDGYNVYQSEAHGLPLHLPGGSHSGSRFLPLPGLPPAPPEPPGILAPQPPDVGSSDPLSMVGPSQGRSPSYAS | 0.19 | 
FGF21 A162Y (SEQ ID NO: 151), Q9NSA1 29-209 (ligand) GHPIPDSSPLLQFGGQVRQRYLYTDDAQQTEAHLEIREDGTVGGAADQSPESLLQLKALKPGVIQILGVKTSRFLCQRPDGALYGSLHFDPEACSFRELLLEDGYNVYQSEAHGLPLHLPGNKSPHRDPAPRGPYRFLPLPGLPPAPPEPPGILAPQPPDVGSSDPLSMVGPSQGRSPSYAS | 0.08 | 
FGF21 K150H (SEQ ID NO: 139), Q9NSA1 29-209 (ligand) GHPIPDSSPLLQFGGQVRQRYLYTDDAQQTEAHLEIREDGTVGGAADQSPESLLQLKALKPGVIQILGVKTSRFLCQRPDGALYGSLHFDPEACSFRELLLEDGYNVYQSEAHGLPLHLPGNHSPHRDPAPRGPARFLPLPGLPPAPPEPPGILAPQPPDVGSSDPLSMVGPSQGRSPSYAS | 0.15 | 
FGF21 D155E (SEQ ID NO: 128), Q9NSA1 29-209 (ligand) GHPIPDSSPLLQFGGQVRQRYLYTDDAQQTEAHLEIREDGTVGGAADQSPESLLQLKALKPGVIQILGVKTSRFLCQRPDGALYGSLHFDPEACSFRELLLEDGYNVYQSEAHGLPLHLPGNKSPHREPAPRGPARFLPLPGLPPAPPEPPGILAPQPPDVGSSDPLSMVGPSQGRSPSYAS | 0.13 | 
FGF21 D155Y (SEQ ID NO: 126), Q9NSA1 29-209 (ligand) GHPIPDSSPLLQFGGQVRQRYLYTDDAQQTEAHLEIREDGTVGGAADQSPESLLQLKALKPGVIQILGVKTSRFLCQRPDGALYGSLHFDPEACSFRELLLEDGYNVYQSEAHGLPLHLPGNKSPHRYPAPRGPARFLPLPGLPPAPPEPPGILAPQPPDVGSSDPLSMVGPSQGRSPSYAS | 0.07 | 
FGF21 K150H, P152L (SEQ ID NO: 140), Q9NSA1 29-209 (ligand) GHPIPDSSPLLQFGGQVRQRYLYTDDAQQTEAHLEIREDGTVGGAADQSPESLLQLKALKPGVIQILGVKTSRFLCQRPDGALYGSLHFDPEACSFRELLLEDGYNVYQSEAHGLPLHLPGNHSLHRDPAPRGPARFLPLPGLPPAPPEPPGILAPQPPDVGSSDPLSMVGPSQGRSPSYAS | 0.13 | 
FGF21 P152A, H153K, R154K, D155E, P156A, A157S, R159Q (SEQ ID NO: 133), Q9NSA1 29-209 (ligand) GHPIPDSSPLLQFGGQVRQRYLYTDDAQQTEAHLEIREDGTVGGAADQSPESLLQLKALKPGVIQILGVKTSRFLCQRPDGALYGSLHFDPEACSFRELLLEDGYNVYQSEAHGLPLHLPGNKSAKKEASPQGPARFLPLPGLPPAPPEPPGILAPQPPDVGSSDPLSMVGPSQGRSPSYAS | 0.24 | 
FGF21 D155P (SEQ ID NO: 127), Q9NSA1 29-209 (ligand) GHPIPDSSPLLQFGGQVRQRYLYTDDAQQTEAHLEIREDGTVGGAADQSPESLLQLKALKPGVIQILGVKTSRFLCQRPDGALYGSLHFDPEACSFRELLLEDGYNVYQSEAHGLPLHLPGNKSPHRPPAPRGPARFLPLPGLPPAPPEPPGILAPQPPDVGSSDPLSMVGPSQGRSPSYAS | 0.08 | 
FGF21 H153Q, R154Q, D155N, A157V, R159K (SEQ ID NO: 132), Q9NSA1 29-209 (ligand) GHPIPDSSPLLQFGGQVRQRYLYTDDAQQTEAHLEIREDGTVGGAADQSPESLLQLKALKPGVIQILGVKTSRFLCQRPDGALYGSLHFDPEACSFRELLLEDGYNVYQSEAHGLPLHLPGNKSPQQNPVPKGPARFLPLPGLPPAPPEPPGILAPQPPDVGSSDPLSMVGPSQGRSPSYAS | 0.23 | 
FGF21 H153Y, R154K, D155N, P156K, A157G (SEQ ID NO: 134), Q9NSA1 29-209 (ligand) GHPIPDSSPLLQFGGQVRQRYLYTDDAQQTEAHLEIREDGTVGGAADQSPESLLQLKALKPGVIQILGVKTSRFLCQRPDGALYGSLHFDPEACSFRELLLEDGYNVYQSEAHGLPLHLPGNKSPYKNKGPRGPARFLPLPGLPPAPPEPPGILAPQPPDVGSSDPLSMVGPSQGRSPSYAS | 0.05 | 
FGF21 D155K (SEQ ID NO: 125), Q9NSA1 29-209 (ligand) GHPIPDSSPLLQFGGQVRQRYLYTDDAQQTEAHLEIREDGTVGGAADQSPESLLQLKALKPGVIQILGVKTSRFLCQRPDGALYGSLHFDPEACSFRELLLEDGYNVYQSEAHGLPLHLPGNKSPHRKPAPRGPARFLPLPGLPPAPPEPPGILAPQPPDVGSSDPLSMVGPSQGRSPSYAS | 0.06 | 
FGF21 D155L (SEQ ID NO: 124), Q9NSA1 29-209 (ligand) GHPIPDSSPLLQFGGQVRQRYLYTDDAQQTEAHLEIREDGTVGGAADQSPESLLQLKALKPGVIQILGVKTSRFLCQRPDGALYGSLHFDPEACSFRELLLEDGYNVYQSEAHGLPLHLPGNKSPHRLPAPRGPARFLPLPGLPPAPPEPPGILAPQPPDVGSSDPLSMVGPSQGRSPSYAS | 0.11 | 
FGF21 G202T (SEQ ID NO: 154), Q9NSA1 29-209 (ligand) GHPIPDSSPLLQFGGQVRQRYLYTDDAQQTEAHLEIREDGTVGGAADQSPESLLQLKALKPGVIQILGVKTSRFLCQRPDGALYGSLHFDPEACSFRELLLEDGYNVYQSEAHGLPLHLPGNKSPHRDPAPRGPARFLPLPGLPPAPPEPPGILAPQPPDVGSSDPLSMVGPSQTRSPSYAS | 0.01 | 
G-FGF21 with a leucine in position 174 (SEQ ID NO: 174), Q9NSA1 29-209 (ligand) GHPIPDSSPLLQFGGQVRQRYLYTDDAQQTEAHLEIREDGTVGGAADQSPESLLQLKALKPGVIQILGVKTSRFLCQRPDGALYGSLHFDPEACSFRELLLEDGYNVYQSEAHGLPLHLPGNKSPHRDPAPRGPARFLPLPGLPPALPEPPGILAPQPPDVGSSDPLSMVGPSQGRSPSYAS |  | In-Cell Western EC50: 0.21 nM
FGF21 D155N (SEQ ID NO: 129), Q9NSA1 29-209 (ligand) GHPIPDSSPLLQFGGQVRQRYLYTDDAQQTEAHLEIREDGTVGGAADQSPESLLQLKALKPGVIQILGVKTSRFLCQRPDGALYGSLHFDPEACSFRELLLEDGYNVYQSEAHGLPLHLPGNKSPHRNPAPRGPARFLPLPGLPPAPPEPPGILAPQPPDVGSSDPLSMVGPSQGRSPSYAS | 0.06 | 

Second part, led by results:

pERK ICW EC50 [nmol/L] | Binder | also measured
0.98 | FGF21 R159-R163 deleted and replaced by HE (SEQ ID NO: 150), Q9NSA1 29-209 (ligand) GHPIPDSSPLLQFGGQVRQRYLYTDDAQQTEAHLEIREDGTVGGAADQSPESLLQLKALKPGVIQILGVKTSRFLCQRPDGALYGSLHFDPEACSFRELLLEDGYNVYQSEAHGLPLHLPGNKSPHRDPAPHEFLPLPGLPPAPPEPPGILAPQPPDVGSSDPLSMVGPSQGRSPSYAS | 
0.17 | FGF21, human (SEQ ID NO: 2), without N-terminal tag, Q9NSA1 29-209 (ligand) HPIPDSSPLLQFGGQVRQRYLYTDDAQQTEAHLEIREDGTVGGAADQSPESLLQLKALKPGVIQILGVKTSRFLCQRPDGALYGSLHFDPEACSFRELLLEDGYNVYQSEAHGLPLHLPGNKSPHRDPAPRGPARFLPLPGLPPAPPEPPGILAPQPPDVGSSDPLSMVGPSQGRSPSYAS | pFGFR ICW EC50: 4.49 nmol/L; pFGFR ICW Emax: 146%
0.17 | FGF21 S200M (SEQ ID NO: 153), Q9NSA1 29-209 (ligand) GHPIPDSSPLLQFGGQVRQRYLYTDDAQQTEAHLEIREDGTVGGAADQSPESLLQLKALKPGVIQILGVKTSRFLCQRPDGALYGSLHFDPEACSFRELLLEDGYNVYQSEAHGLPLHLPGNKSPHRDPAPRGPARFLPLPGLPPAPPEPPGILAPQPPDVGSSDPLSMVGPMQGRSPSYAS | 
0.14 | FGF21 R154Q, D155L (SEQ ID NO: 130), Q9NSA1 29-209 (ligand) GHPIPDSSPLLQFGGQVRQRYLYTDDAQQTEAHLEIREDGTVGGAADQSPESLLQLKALKPGVIQILGVKTSRFLCQRPDGALYGSLHFDPEACSFRELLLEDGYNVYQSEAHGLPLHLPGNKSPHQLPAPRGPARFLPLPGLPPAPPEPPGILAPQPPDVGSSDPLSMVGPSQGRSPSYAS | 
0.24 | G-FGF21 (SEQ ID NO: 3), without N-terminal tag, Q9NSA1 29-209 (ligand) GHPIPDSSPLLQFGGQVRQRYLYTDDAQQTEAHLEIREDGTVGGAADQSPESLLQLKALKPGVIQILGVKTSRFLCQRPDGALYGSLHFDPEACSFRELLLEDGYNVYQSEAHGLPLHLPGNKSPHRDPAPRGPARFLPLPGLPPAPPEPPGILAPQPPDVGSSDPLSMVGPSQGRSPSYAS | 
0.17 | FGF21 R159H (SEQ ID NO: 152), Q9NSA1 29-209 (ligand) GHPIPDSSPLLQFGGQVRQRYLYTDDAQQTEAHLEIREDGTVGGAADQSPESLLQLKALKPGVIQILGVKTSRFLCQRPDGALYGSLHFDPEACSFRELLLEDGYNVYQSEAHGLPLHLPGNKSPHRDPAPHGPARFLPLPGLPPAPPEPPGILAPQPPDVGSSDPLSMVGPSQGRSPSYAS | 
0.39 | FGF21 R154Q, D155K (SEQ ID NO: 131), Q9NSA1 29-209 (ligand) GHPIPDSSPLLQFGGQVRQRYLYTDDAQQTEAHLEIREDGTVGGAADQSPESLLQLKALKPGVIQILGVKTSRFLCQRPDGALYGSLHFDPEACSFRELLLEDGYNVYQSEAHGLPLHLPGNKSPHQKPAPRGPARFLPLPGLPPAPPEPPGILAPQPPDVGSSDPLSMVGPSQGRSPSYAS | 
